Reference: patent publication US20250327097A1, “ORGANISMS PRODUCING LESS CROTONIC ACID” (Global Bioenergies, priority 2021, published 2025)
Positions count from the first letter of the chain named. In names and notes the source's numbering stands.

B1: N388M-L432F-L434W-S436N (protein)
chain: MFLKSLREQINLLKRQGDLRIINRPVDSYLEAAAIIRRSTETKAPVPLMTNIKGYPGCSIVGGLAALSSNPEYPLSRVAMSLGLSTTASAQSIVQYLIDGLKKTPYLPVEIDSNSAPCKQNILRGEDASLAHFPIPQVHQHDGNRYVNTWGVFIVESPDGQWCNWSIQRVQYLNDRQMIALVFPSQHISDIWEEWVKIGKPMPYALVQGCEPIVPYIAGLPLLERNVNEAEYIGALYGKGIEVVKCETHDLRVPASSEVVIEGYFAITREGVEGPFGEFAGYIPNENSLQPILSITAISWQDDPIWPVVAEGKPVDEYHTCSGIGDAAAIQNVLLTANLPVSFVWVPLYSACHLMIVSINRHWRQTHPDLTSEQLTKKVGDVIHQTRMSIKLPKIVVLDDDVDPADTESLLWALATRIHPERKRYFYESCIFPWLNCYSEEERHNRKGKRVIIDALLPENHGAISSFDYAYPDDIKQRVLMHWETDFSHD
B2: N388M-K394R-L432F-L434W-S436A (protein)
chain: B1 chain with K394R, N436A
B3: N388M-C430P-L432F-L434W-S436A (protein)
chain: B1 chain with C430P, N436A
B4: K394R-C430P-L432F-L434W-S436A (protein)
chain: B1 chain with M388N, K394R, C430P, N436A
B5: C430P-L432F-L434W-S436N (protein)
chain: B1 chain with M388N, C430P
B6: K394R-C430P-L432F-L434W-S436N (protein)
chain: B1 chain with M388N, K394R, C430P
B7: C430S-L432F-L434W-S436N (protein)
chain: B1 chain with M388N, C430S
B8: N388M-C430S-L432F-L434W-S436A (protein)
chain: B1 chain with C430S, N436A
B9: N388M-K394R-L432F-L434W-S436N (protein)
chain: B1 chain with K394R
B10: N388M-K394R-C430S-L432F-L434W-S436A (protein)
chain: B1 chain with K394R, C430S, N436A
B11: N388M-C430P-L432F-L434W-S436N (protein)
chain: B1 chain with C430P
B12: K394R-C430S-L432F-L434W-S436A (protein)
chain: B1 chain with M388N, K394R, C430S, N436A
B13: N388M-C430S-L432F-L434W-S436N (protein)
chain: B1 chain with C430S
B14: K394R-L432F-L434W-S436N (protein)
chain: B1 chain with M388N, K394R
B15: K394R-C430S-L432F-L434W-S436N (protein)
chain: B1 chain with M388N, K394R, C430S

These molecules were tested on 3-methylcrotonic acid.
Type: biochemical, Yersinia frederiksenii
Set-up: key: “+” representing a low increase in activity; “++++” representing a high increase in activity

Molecule | Activity relative to WT
B1 | +
B2 | +
B3 | +
B4 | +
B5 | +
B6 | +
B7 | +
B8 | +
B9 | +
B10 | +
B11 | +
B12 | +
B13 | +
B14 | +
B15 | +
